Results published in patent US20240261333A1, “NOVEL TARGETS FOR ENHANCING ANTI-TUMOR IMMUNITY” (THE BROAD INSTITUTE, INC., priority 2021, published 2024).

T1: B3GNT2 (Homo sapiens, UniProt Q9NY97)
T1 construct: The respective ORFs of candidate genes [CD274 (NM_014143), MCL1 (NM_021960), JUNB (NM_002229), and B3GNT2 (NM_006577)] were synthesized; expressed in transfected cells; host or cells: A375 melanoma cells (lentiviral ORF overexpression)
T1 sequence (Q9NY97 1-397): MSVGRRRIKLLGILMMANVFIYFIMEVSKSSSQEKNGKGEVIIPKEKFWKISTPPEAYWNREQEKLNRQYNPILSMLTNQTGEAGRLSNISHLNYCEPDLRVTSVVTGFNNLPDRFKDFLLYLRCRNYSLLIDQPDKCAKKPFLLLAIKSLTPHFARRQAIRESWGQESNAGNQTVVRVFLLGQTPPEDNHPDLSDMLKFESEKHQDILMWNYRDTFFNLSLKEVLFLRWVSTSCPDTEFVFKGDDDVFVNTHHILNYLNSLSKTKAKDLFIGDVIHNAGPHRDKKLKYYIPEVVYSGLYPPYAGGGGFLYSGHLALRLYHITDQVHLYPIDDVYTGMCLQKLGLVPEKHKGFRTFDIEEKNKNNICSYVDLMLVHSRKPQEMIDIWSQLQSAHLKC


Target: T1, B3GNT2
Test: Co-IP of FLAG-tagged B3GNT2 followed by mass spectrometry
Format: cell-based
Design: C-term IgG / C-term flag: unit not given here
In short: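 FLAG-tagged B3GNT2 immunoprecipitated from cell lysate (HEPES, 1% Triton X-100, 150 mM NaCl) with anti-FLAG versus […], overnight at 4° C, then captured on Protein A/G magnetic beads for 4 h. Two biological replicates per condition. Peptides fractionated and analyzed by nano-LC on an Orbitrap Elite in data-dependent mode.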

[1] = Co-IP with FLAG antibody, C-terminally FLAG-tagged B3GNT2, mass spectrometry count, unit not given
[2] = Co-IP with FLAG antibody, N-terminally FLAG-tagged B3GNT2, mass spectrometry count, unit not given
[3] = Co-IP with IgG control antibody, C-terminally FLAG-tagged B3GNT2, mass spectrometry count, unit not given
[4] = Co-IP with IgG control antibody, N-terminally FLAG-tagged B3GNT2, mass spectrometry count, unit not given
[5] = Co-IP followed by mass spectrometry of B3GNT2, C-term tag, FLAG pull-down
[6] = Co-IP followed by mass spectrometry of B3GNT2, C-term tag, IgG pull-down
[7] = Co-IP followed by mass spectrometry of B3GNT2, N-term tag, FLAG pull-down
[8] = Co-IP followed by mass spectrometry of B3GNT2, N-term tag, IgG pull-down

| C-term flag [1] | N-term FLAG [2] | C-term IgG [3] | N-term IgG [4] | C-term flag [5] | C-term IgG [6] | N-term FLAG [7] | N-term IgG [8] | Molecule |
| --- | --- | --- | --- | --- | --- | --- | --- | --- |
| 0 | 3 | 0 | 0 | – | – | – | – | SLC25A13 (protein) AAAKVALTKRADPAELRTIFLKYASIEKNGEFFMSPNDFVTRYLNIFGESQPNPKTVELLSGVVDQTKDGLISFQEFVAFESVLCAPDALFMVAFQLFDKAGKGEVTFEDVKQVFGQTTIHQHIPFNWDSEFVQLHFGKERKRHLTYAEFTQFLLEIQLEHAKQAFVQRDNARTGRVTAIDFRDIMVTIRPHVLTPFVEECLVAAAGGTTSHQVSFSYFNGFNSLLNNMELIRKIYSTLAGTRKDVEVTKEEFVLAAQKFGQVTPMEVDILFQLADLYEPRGRMTLADIERIAPLEEGTLPFNLAEAQRQQKASGDSARPVLLQVAESAYRFGLGSVAGAVGATAVYPIDLVKTRMQNQRSTGSFVGELMYKNSFDCFKKVLRYEGFFGLYRGLLPQLLGVAPEKAIKLTVNDFVRDKFMHKDGSVPLAAEILAGGCAGGSQVIFTNPLEIVKIRLQVAGEITTGPRVSALSVVRDLGFFGIYKGAKACFLRDIPFSAIYFPCYAHVKASFANEDGQVSPGSLLLAGAIAGMPAASLVTPADVIKTRLQVAARAGQTTYSGVIDCFRKILREEGPKALWKGAGARVFRSSPQFGVTLLTYELLQRWFYIDFGGVKPMGSEPVPKSRINLPAPNPDHVGGYKLAVATFAGIENKFGLYLPLFKPSVSTSKAIGGGP |
| – | – | – | – | 3 | 0 | 0 | 0 | SRP14 (protein) VLLESEQFLTELTRLFQKCRTSGSVYITLKKYDGRTKPIPKKGTVEGFEPADNKCLLRATDGKKKISTVVSSKEVNKFQMAYSNLLRANMDGLKKRDKKNKTKKTKAAAAAAAAAPAAAATAPTTAATTAATAAQ |
| – | – | – | – | 3 | 0 | 0 | 0 | TIMP3 (protein) CTCSPSHPQDAFCNSDIVIRAKVVGKKLVKEGPFGTLVYTIKQMKMYRGFTKMPHVQYIHTEASESLCGLKLEVNKYQYLLTGRVYDGKMYTGLCNFVERWDQLTLSQRKGLNYRYHLGCNCKIKSCYYLPCFVTSKNECLWTDMLSNFGYPGYQSKHYACIRQKGGYCSWYRGWAPPDKSIINATDP |

Second part, the molecule before the results:

| Molecule | C-term flag [1] | N-term FLAG [2] | C-term IgG [3] | N-term IgG [4] | C-term flag [5] | C-term IgG [6] | N-term FLAG [7] | N-term IgG [8] |
| --- | --- | --- | --- | --- | --- | --- | --- | --- |
| CHCHD6 (protein) GSTESSEGRRVSFGVDEEERVRVLQGVRLSENVVNRMKEPSSPPPAPTSSTFGLQDGNLRAPHKESTLPRSGSSGGQQPSGMKEGVKRYEQEHAAIQDKLFQVAKREREAATKHSKASLPTGEGSISHEEQKSVRLARELESREAELRRRDTFYKEQLERIERKNAEMYKLSSEQFHEAASKMESTIKPRRVEPVCSGLQAQILHCYRDRPHEVLLCSDLVKAYQRCVSAAHKG | 3 | 0 | 0 | 0 | – | – | – | – |
| HADHB (protein) AAPAVQTKTKKTLAKPNIRNVVVVDGVRTPFLLSGTSYKDLMPHDLARAALTGLLHRTSVPKEVVDYIIFGTVIQEVKTSNVAREAALGAGFSDKTPAHTVTMACISANQAMTTGVGLIASGQCDVIVAGGVELMSDVPIRHSRKMRKLMLDLNKAKSMGQRLSLISKFRFNFLAPELPAVSEFSTSETMGHSADRLAAAFAVSRLEQDEYALRSHSLAKKAQDEGLLSDVVPFKVPGKDTVTKDNGIRPSSLEQMAKLKPAFIKPYGTVTAANSSFLTDGASAMLIMAEEKALAMGYKPKAYLRDFMYVSQDPKDQLLLGPTYATPKVLEKAGLTMNDIDAFEFHEAFSGQILANFKAMDSDWFAENYMGRKTKVGLPPLEKFNNWGGSLSLGHPFGATGCRLVMAAANRLRKEGGQYGLVAACAAGGQGHAMIVEAYPK | – | – | – | – | 3 | 0 | 0 | 0 |
| CSE1L (protein) MELSDANLQTLTEYLKKTLDPDPAIRRPAEKFLESVEGNQNYPLLLLTLLEKSQDNVIKVCASVTFKNYIKRNWRIVEDEPNKICEADRVAIKANIVHLMLSSPEQIQKQLSDAISIIGREDFPQKWPDLLTEMVNRFQSGDFHVINGVLRTAHSLFKRYRHEFKSNELWTEIKLVLDAFALPLTNLFKATIELCSTHANDASALRILFSSLILISKLFYSLNFQDLPEFFEDNMETWMNNFHTLLTLDNKLLQTDLVSNAIQFLASVCERPHYKNLFEDQNTLTSICEKVIVPNMEFRAADEEAFEDNSEEYIRRDLEGSDIDTRRRAACDLVRGLCKFFEGPVTGIFSGYVNSMLQEYAKNPSVNWKHKDAAIYLVTSLASKAQTQKHGITQANELVNLTEFFVNHILPDLKSANVNEFPVLKADGIKYIMIFRNQVPKEHLLVSIPLLINHLQAESIVVHTYAAHALERLFTMRGPNNATLFTAAEIAPFVEILLTNLFKALTLPGSSENEYIMKAIMRSFSLLQEAIIPYIPTLITQLTQKLLAVSKNPSKPHFNHYMFEAICLSIRITCKANPAAVVNFEEALFLVFTEILQNDVQEFIPYVFQVMSLLLETHKNDIPSSYMALFPHLLQPVLWERTGNIPALVRLLQAFLERGSNTIASAAADKIPGLLGVFQKLIASKANDHQGFYLLNSIIEHMPPESVDQYRKQIFILLFQRLQNSKTTKFIKSFLVFINLYCIKYGALALQEIFDGIQPKMFGMVLEKIIIPEIQKVSGNVEKKICAVGITKLLTECPPMMDTEYTKLWTPLLQSLIGLFELPEDDTIPDEEHFIDIEDTPGYQTAFSQLAFAGKKEHDPVGQMVNNPKIHLAQSLHKLSTACPGRVPSMVSTSLNAEALQYLQGYLQAASVTLL | – | – | – | – | 3 | 0 | 0 | 0 |
| CPSF6 (protein) MADGVDHIDIYADVGEEFNQEAEYGGHDQIDLYDDVISPSANNGDAPEDRDYMDTLPPTVGDDVGKGAAPNVVYTYTGKRIALYIGNLTWWTTDEDLTEAVHSLGVNDILEIKFFENRANGQSKGFALVGVGSEASSKKLMDLLPKRELHGQNPVVTPCNKQFLSQFEMQSRKTTQSGQMSGEGKAGPPGGSSRAAFPQGGRGRGRFPGAVPGGDRFPGPAGPGGPPPPFPGNLIKHLVKGTRPLFLETRIPWHMGHSIEEIPIFGLKAGQTPPRPPLGPPGPPGPPGPPPPGQVLPPPLAGPPNRGDRPPPPVLFPGQPFGQPPLGPLPPGPPPPVPGYGPPPGPPPPQQGPPPPPGPFPPRPPGPLGPPLTLAPPPHLPGPPPGAPPPAPHVNPAFFPPPTNSGMPTSDSRGPPPTDPYGRPPPYDRGDYGPPGREMDTARTPLSEAEFEEIMNRNRAISSSAISRAVSDASAGDYGSAIETLVTAISLIKQSKVSADDRCKVLISSLQDCLHGIESKSYGSGSRRERSRERDHSRSREKSRRHKSRSRDRHDDYYRERSRERERHRDRDRDRDRERDREREYRHR | – | – | – | – | 35 | 33 | 30 | 28 |
| SERBP1 (protein) PGHLQEGFGCVVTNRFDQLFDDESDPFEVLKAAENKKKEAGGGGVGGPGAKSAAQAAAQTNSNAAGKQLRKESQKDRKNPLPPSVGVVDKKEETQPPVALKKEGIRRVGRRPDQQLQGEGKIIDRRPERRPPRERRFEKPLEEKGEGGEFSVDRPIIDRPIRGRGGLGRGRGGRGRGMGRGDGFDSRGKREFDRHSGSDRSSFSHYSGLKHEDKRGGSGSHNWGTVKDELTESPKYIQKQISYNYSDLDQSNVTEETPEGEEHHPVADTENKENEVEEVKEEGPKEMTLDEWKAIQNKDRAKVEFNIRKPNEGADGQWKKGFVLHKSKSEEAHAEDSVMDHHFRKPANDITSQLEINFGDLGRPGRGGRGGRGGRGRGGRPNRGSRTDKSSASAPDVDDPEAFPALA | – | – | – | – | 10 | 5 | 0 | 4 |
